Reference: article PMC12503259, “Establishment of an in vivo analytical method for detecting total anti-UFH activity and pharmacokinetic study in PS and R15 in rats” (PLOS One, 2025)

What was measured:
[1] = Pharmacokinetic study in Wistar rats, total anti-heparin activity in plasma (fixed UFH added, residual UFH by anti-FXa kit); format: in vivo
Protocol: Processing of Plasma Samples: 100 μL of the unknown plasma sample was added to 500 μL of 75% methanol (methanol: water = 75:25, v/v) and vortex-mixed for 5 seconds. The mixture was then centrifuged at 12,000 r/min for 10 minutes at 25°C. The supernatant (500 μL) was collected and dried under nitrogen at 60°C. Subsequently, UFH (0.14 U·mL^-1 for PS and 0.15 U·mL^-1 for R15; 120 μL) was added, and the mixture was vigorously shaken at room temperature for 10 minutes. The residual UFH content was measured using the Heparin Anti-FXa assay kit.
The detailed procedure is as follows: Accurately pipette 40 μL of the sample into a 96-well plate. Place the plate in a microplate shaker. Using a multichannel pipette, add 40 μL of reagent R1 and mix by shaking. Incubate at 37 °C for exactly 3 minutes (start timing upon addition of R1; at 50 seconds, begin shaking with the microplate shaker for 1 minute, then place the plate in the incubator). Remove the 96-well plate from the incubator and place it on the open microplate shaker. Using a multichannel pipette, add 40 μL of reagent R2 to each well and incubate at 37 °C for 6 minutes (after adding R2, at 3 minutes and 50 seconds, open the microplate shaker and shake for 4 minutes, then return the plate to the incubator). Remove the 96-well plate from the incubator and place it on the open microplate shaker. Quickly add 40 μL of reagent R3 using a multichannel pipette and shake until 9 minutes and 10 seconds. At 9 minutes and 30 seconds, add 80 μL of 20% acetic acid to each well to terminate the reaction. Measure the absorbance at 405 nm using a microplate reader (Multiskan FC, Thermo Fisher US).
Eight Wistar rats (approximately 250 g; equally divided by sex and acclimatized for 1 week in the animal facility) were used for profiling pharmacokinetics of PS. Each rat was cannulated in carotid artery to collect blood the day before the experiment. PS was injected through the tail vein and blood samples were collected at 0 min, 1 min, 3 min, 5 min, 7 min, 9 min, 11 min, 15 min, 20 min, 30 min, 60 min and 120 min in a tube containing 4% sodium citrate. Plasma was achieved by centrifugation at 8000 r/min for 10 min, and stored in the refrigerator at −80°C. […]
During the analysis of actual samples, a standard curve and a series of calibration standards were established for each analytical batch to determine the concentration of PS and R15 in plasma. The concentrations were plotted on the X-axis, and the data were fitted using Equation (3).
Weighted least squares regression was used for the calculations. The Optical Density (OD) values of the unknown biological samples were substituted into the equation to determine the concentration of PS and R15, respectively.
Pharmacokinetic parameters of PS were calculated by WinNonlin 6.4, and all data were processed by Microsoft Excel 2013 and GraphPad Prism 8.3.

[2] = Specific activity, units of UFH neutralized per mg; format: biochemical; conditions: units of UFH exactly neutralized per milligram
From the text: Since the toxicity of both PS and R15 correlates with their heparin antagonism capacity (i.e., potency), the units used for PS and R15 in most experiments are U·mL^-1 or U·kg^-1. Employing activity units (U) allows for a more scientifically rigorous comparison of the pharmacokinetic parameters of PS and R15 under equivalent activity levels (i.e., equivalent heparin antagonism capacity).
The specific activity of PS is 150 U·mg^-1, meaning that each milligram of PS can exactly neutralize 150 units of UFH. The specific activity of R15 is 170 U·mg^-1, meaning that each milligram of R15 can exactly neutralize 170 units of UFH. Therefore, expressing the concentration of PS as 1 U·mL^-1 denotes that each milliliter of the medium contains sufficient PS to neutralize 1 unit of UFH, and the same applies to R15.

[3] = PS 300 U/kg iv, rat 1# (male), single animal
[4] = PS 300 U/kg iv, rat 2# (male), single animal
[5] = PS 300 U/kg iv, rat 3# (male), single animal, not included in mean
[6] = PS 300 U/kg iv, rat 6# (male), single animal
[7] = PS 300 U/kg iv, rat 11# (female), single animal
[8] = PS 300 U/kg iv, rat 12# (female), single animal
[9] = PS 300 U/kg iv, rat 13# (female), single animal
[10] = PS 300 U/kg iv, rat 14# (female), single animal, not included in mean
[11] = PS 300 U·kg^-1 single iv tail vein, Wistar rats, Total (male and female), mean ± SD, n = 6, rats 3# and 14# excluded
[12] = PS 300 U·kg^-1 single iv tail vein, Wistar rats, female, mean ± SD, rat 14# excluded
[13] = PS 300 U·kg^-1 single iv tail vein, Wistar rats, male, mean ± SD, rat 3# excluded

For Protamine sulfate [PS], the plasma concentration ([1]; PS 300 U/kg iv, 1 min, Mean±SD) was 12190 ± 1890 ng/mL, the plasma concentration ([1]; PS 300 U/kg iv, 3 min, Mean±SD) was 3410 ± 1620 ng/mL and the plasma concentration ([1]; PS 300 U/kg iv, 5 min, Mean±SD) was 1760 ± 440 ng/mL. The plasma concentration ([1]; PS 300 U/kg iv, 7 min, Mean±SD) was 910 ± 290 ng/mL, the plasma concentration ([1]; PS 300 U/kg iv, 9 min, Mean±SD) was 820 ± 260 ng/mL and the plasma concentration ([1]; PS 300 U/kg iv, 11 min, Mean±SD) was 670 ± 210 ng/mL. For the same substance, the plasma concentration ([1]; PS 300 U/kg iv, 15 min, Mean±SD) was 550 ± 90 ng/mL, the plasma concentration ([1]; PS 300 U/kg iv, 20 min, Mean±SD column (one rat)) was 430 ng/mL and the plasma concentration ([1]; PS 300 U/kg iv, 20 min, rat 6#) was 430 ng/mL. The AUC [1, 3] was 35.86 min･µg･mL^-1, the CL [1, 3] was 53.74 mL･min^-1･kg^-1 and the Cmax [1, 3] was 12.10 µg･mL^-1. For the same substance, the MRT [1, 3] was 2.51 min, the T1/2 [1, 3] was 1.72 min and the Vd [1, 3] was 134 mL･kg^-1. For the same substance, the AUC [1, 4] was 42.97 min･µg･mL^-1, the CL [1, 4] was 41.70 mL･min^-1･kg^-1 and the Cmax [1, 4] was 15.14 µg･mL^-1. It also gave an MRT [1, 4] of 3.20 min, a T1/2 [1, 4] of 7.06 min and a Vd [1, 4] of 425 mL･kg^-1. It also gave an AUC [1, 5] of 17.83 min･µg･mL^-1, a Cmax [1, 5] of 11.17 µg･mL^-1 and an MRT [1, 5] of 1.12 min. For the same substance, the AUC [1, 6] was 45.62 min･µg･mL^-1, the CL [1, 6] was 39.21 mL･min^-1･kg^-1 and the Cmax [1, 6] was 14.12 µg･mL^-1. It also gave an MRT [1, 6] of 4.40 min, a T1/2 [1, 6] of 8.65 min and a Vd [1, 6] of 489 mL･kg^-1. It also gave an AUC [1, 7] of 29.16 min･µg･mL^-1, a CL [1, 7] of 66.07 mL･min^-1･kg^-1 and a Cmax [1, 7] of 12.55 µg･mL^-1. The MRT [1, 7] was 2.12 min, the T1/2 [1, 7] was 1.64 min and the Vd [1, 7] was 156 mL･kg^-1. For the same substance, the AUC [1, 8] was 33.06 min･µg･mL^-1, the CL [1, 8] was 55.19 mL･min^-1･kg^-1 and the Cmax [1, 8] was 12.70 µg･mL^-1. It also gave an MRT [1, 8] of 2.49 min, a T1/2 [1, 8] of 2.18 min and a Vd [1, 8] of 173 mL･kg^-1. The AUC [1, 9] was 28.68 min･µg･mL^-1, the CL [1, 9] was 66.01 mL･min^-1･kg^-1 and the Cmax [1, 9] was 9.40 µg･mL^-1. It also gave an MRT [1, 9] of 2.97 min, a T1/2 [1, 9] of 2.41 min and a Vd [1, 9] of 229 mL･kg^-1. It also gave an AUC [1, 10] of 18.80 min･µg･mL^-1, a CL [1, 10] of 97.21 mL･min^-1･kg^-1 and a Cmax [1, 10] of 10.34 µg･mL^-1. The MRT [1, 10] was 1.46 min, the T1/2 [1, 10] was 1.20 min and the Vd [1, 10] was 168 mL･kg^-1. For the same substance, the Cmax ([1]; PS 300 U·kg^-1 single iv tail vein, Wistar rats, Total (male and female), at 1 min, mean ± SD, n = 6, rats 3# and 14# excluded) was 12.67 ± 1.96 µg/mL, the AUC [1, 11] was 35.89 ± 7.07 µg·min/mL and the CL [1, 11] was 53.65 ± 11.49 mL/min/kg. The MRT [1, 11] was 2.95 ± 0.81 min, the T1/2 [1, 11] was 3.94 ± 3.08 min and the Vd [1, 11] was 268 ± 151 mL/kg. The AUC [1, 12] was 30.30 ± 2.40 µg·min/mL, the CL [1, 12] was 62.42 ± 6.26 mL/min/kg and the Cmax [1, 12] was 11.55 ± 1.86 µg/mL. For the same substance, the MRT [1, 12] was 2.53 ± 0.43 min, the T1/2 [1, 12] was 2.08 ± 0.40 min and the Vd [1, 12] was 186 ± 38 mL/kg. The AUC [1, 13] was 41.48 ± 5.05 µg·min/mL, the CL [1, 13] was 44.88 ± 7.77 mL/min/kg and the Cmax [1, 13] was 13.79 ± 1.55 µg/mL. It also gave an MRT [1, 13] of 3.37 ± 0.96 min, a T1/2 [1, 13] of 5.81 ± 3.63 min and a Vd [1, 13] of 349 ± 189 mL/kg. For the same substance, the specific activity [2] was 150 U·mg^-1.
